Results reported in US20120088313A1 (JAPAN TOBACCO, published 2012).

Target: T1, BioEase tag-fused SITH-1 protein (human herpes virus 6 (HHV-6), biotinylated in vivo (E. coli) within the N-terminal BioEase tag; residue not stated)
T1 construct: Fusion of the BioEase biotinylation tag (N-terminal) with HHV-6 SITH-1, expressed in E. coli BL21 (DE3); Used as a crude extract on blots, or captured on a TM2 plate; also called BioEase-SITH-1 fusion protein; biotinylated SITH-1
T1 chain: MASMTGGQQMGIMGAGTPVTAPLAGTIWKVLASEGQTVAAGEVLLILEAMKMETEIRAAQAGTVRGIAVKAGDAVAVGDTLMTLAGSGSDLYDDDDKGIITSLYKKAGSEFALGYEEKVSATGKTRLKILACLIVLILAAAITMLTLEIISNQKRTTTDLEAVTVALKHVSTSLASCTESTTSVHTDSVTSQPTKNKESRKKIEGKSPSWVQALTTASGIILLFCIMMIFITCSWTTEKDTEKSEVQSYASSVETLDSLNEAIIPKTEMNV
Assay: capture of crude extract on TM2-coated microplate (binding through biotin)

B1: tamavidin 2 (other)
chain: MSDVQSSLTGTWYNELNSKMELTANKDGTLTGKYLSKVGDVYVPYPLSGRYNLQPPAGQGVALGWAVSWENSKIHSATTWSGQFFSESSPVILTQWLLSSSTARGDVWESTLVGNDSFTKTAPTEQQIAHAQLHCRAPRLK
notes: Purified TM2 immobilized on a New ELISA microplate; also called TM2; purified TM2
binding result: binds
